Assay results as given in patent US20130064825A1.

B1: 21B12, anti-PCSK9 huIgG4 (antibody, V domains shown)
VH: QVQLVQSGAEVKKPGASVKVSCKASGYTLTSYGISWVRQAPGQGLEWMGWVSFYNGNTNYAQKLQGRGTMTTDPSTSTAYMELRSLRSDDTAVYYCARGYGMDVWGQGTTVTVSS
VL: QSALTQPASVSGSPGQSITISCTGTSSDVGGYNSVSWYQQHPGKAPKLMIYEVSNRPSGVSNRFSGSKSGNTASLTISGLQAEDEADYYCNSYTSTSMVFGGGTKLTVLQ
B2: 16F12, anti-PCSK9 huIgG4 (antibody, V domains shown)
VH: QVHLVESGGGVVQPGRSLRLSCAASGFTFNSFGMHWVRQAPGKGLEWVALIWSDGSDEYYADSVKGRFTISRDNSKNTLYLQMNSLRAEDTAVYYCARAIAALYYYYGMDVWGQGTTVTVSS
VL: QSVLTQPPSVSAAPGQKVTISCSGSSSNIGNNFVSWYQQLPGTAPKLLIYDYNKRPSGIPDRFSGSKSGTSATLGITGLQTGDEADYYCGTWDSSLSAYVFGTGTRVTVLQ

Key:
[1] = biological target: cynomolgus monkey PCSK9, V5-6xHIS tagged (cynomolgus monkey); experiment: SPR (Biacore 2000), antibody amine-coupled on CM5 chip, PCSK9 injected, pH 7.4
[2] = biological target: cynomolgus monkey PCSK9, V5-6xHIS tagged (cynomolgus monkey); experiment: Biacore solution equilibrium assay: PCSK9 mixed with 21B12.1, free PCSK9 read on immobilised 21B12
[3] = biological target: cynomolgus monkey PCSK9, V5-6xHIS tagged (cynomolgus monkey); experiment: KinExA solution equilibrium, PCSK9-coated beads; cyno PCSK9

Binder	Kd [1] [nM]	Kd [2] [nM]	Kd [3] [nM]
B1	0.36	0.011	
B2	0.87		0.016
